Test results taken from article doi:10.1101/2024.07.10.602929 (2024).
Where no end group is shown, it is not given here. The star is where a group is joined. Biotin = O=C1N[C@H]2[C@H](CS[C@H]2CCCCC(=O)*)N1

Key:
Test in all cases: BLI
[1] = molecular target: GABARAPL2 (human, UniProt P60520 1-117)
[2] = molecular target: GABARAP (γ-aminobutyric acid type A receptor-associated protein) (human, UniProt O95166 1-117)
[3] = molecular target: LC3B (human, UniProt Q9GZQ8 1-120)
[4] = molecular target: LC3A (human, UniProt Q9H492 1-121)
[5] = molecular target: 1 (human, UniProt Q9H0R8 1-117)
Chain of 1 (Q9H0R8 whole entry): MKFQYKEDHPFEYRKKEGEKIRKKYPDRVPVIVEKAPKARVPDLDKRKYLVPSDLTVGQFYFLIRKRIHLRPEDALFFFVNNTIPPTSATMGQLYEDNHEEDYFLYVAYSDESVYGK

Chain of GABARAPL2 (P60520 whole entry): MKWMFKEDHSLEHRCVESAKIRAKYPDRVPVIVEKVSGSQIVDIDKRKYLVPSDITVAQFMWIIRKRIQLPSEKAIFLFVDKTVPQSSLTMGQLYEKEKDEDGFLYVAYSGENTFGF
Chain of GABARAP (γ-aminobutyric acid type A receptor-associated protein) (O95166 whole entry): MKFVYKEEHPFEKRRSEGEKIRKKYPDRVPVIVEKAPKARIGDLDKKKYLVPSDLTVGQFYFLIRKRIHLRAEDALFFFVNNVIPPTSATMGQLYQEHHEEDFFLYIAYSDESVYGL

Row | Binder | Kd [1] [µM] | Kd [2] [µM] | Kd [3] [µM] | Kd [4] [µM] | Kd [5] [µM]
1 | Biotin-ISQKSDEEDFVKVED [PCM1 LIR peptide (pericentriolar material 1 protein residues 1954-1968), N-terminally biotinylated] | 15 | 3.7 | 369 | 118 | –
2 | Biotin-STAENAEYLRVAPQSSEFIGA [EGFR LIR2 peptide (EGFR residues 1190–1210), N-terminally biotinylated] | 146 | 304 | 1460 | 648 | 48
3 | Biotin-ALTEDSIDDTFLPVPEYINQSVPK [EGFR LIR1 peptide (EGFR residues 1076–1099), N-terminally biotinylated] | 105 | – | 435 | 231 | 21.6
